From publication PMC5349899

Tests used:
[1] = target: biotinylated avi-tagged TGF-β2 (human); test: SPR; biotinylated avi-tagged TGF-β2 or TGF-β3 captured on streptavidin-coated CM5 chip at 50-80 RU; analytes injected as two-fold dilution series in HBS-EP at 100 µL/min (150 s); BIAcore 3000; global fit to a simple 1:1 model
[2] = target: biotinylated avi-tagged TGF-β3 (human); test: as above
[3] = target: TGF-β2 (in the calorimeter cell); test: ITC; ER or RER (50-110 µM) in the syringe, TGF-β2 (5-8 µM) in the cell; 10 mM sodium phosphate pH 7.4, 30 mM CHAPS; 37°C; Microcal PEAQ-ITC

| Kd [1] | koff [1] | kon [1] | Kd [2] | koff [2] | kon [2] | Kd [3] | stoichiometry N [3] | IC50 of inhibition of PAI-1 luciferase reporter activity in Mv1Lu mink lung epithelial cells induced with 20 pM TGF-β1 (TGF-β1) | reduction of Smad2 phosphorylation (Western blot) in MCF-10A cells stimulated with 2 pM TGF-β1 in the presence of 0, 0.01, 0.1, 1 and 10 nM ER (TGF-β1) | Substance |
| --- | --- | --- | --- | --- | --- | --- | --- | --- | --- | --- |
| 1.44 nM | 0.000438 s⁻¹ | 307000 M⁻¹ s⁻¹ | 0.0505 nM | 1.97e-05 s⁻¹ | 391000 M⁻¹ s⁻¹ | 215 nM | 1.05 sites | – | – | ER receptor trap (betaglycan endoglin domain-TβRII; rat BG-human TβRII receptor fusion) (designed binder) |
| – | 0.000253 s⁻¹ | 307000 M⁻¹ s⁻¹ | 0.0244 nM | 9.44e-06 s⁻¹ | 387000 M⁻¹ s⁻¹ | 128 nM | 1.1 sites | – | – | RER receptor trap (TβRII-betaglycan endoglin domain-TβRII) (designed binder) |
| 30.6 nM | 0.00466 s⁻¹ | 152000 M⁻¹ s⁻¹ | 94.6 nM | 0.0124 s⁻¹ | 131000 M⁻¹ s⁻¹ | – | – | – | – | betaglycan endoglin domain (BGE) (domain or fragment) |
| – | – | – | – | – | – | – | – | 14 pM | 30% | bivalent TGF-β receptor trap ER (BGE-RII) (from UniProt P37173 23-166) |
